Patent EP4541814A1

Target: AAV9 viral particles (adeno-associated virus 9)
Assay: SPR (Biacore 8K+), biotinylated ligand on SA chip (4128 RU), AAV9 2E12 vp/ml

CaptureSelect Biotin Anti-AAV9 Conjugate (ThermoFisher Scientific)
AAV9 capacity, 2E12 vp/ml (RU): 8860 RU
